Measured values taken from publication PMC8156467, “Disruption of YY1-EZH2 Interaction Using Synthetic Peptides Inhibits Breast Cancer Development” (Cancers, 2021).

System: HA-YY1
Assay: Co-IP of Flag-EZH2 wt/mutants with HA-YY1
Format: binding
Conditions: OPB domain of YY1 deleted
Text: HA-tagged expression vectors of wild-type (wt) and mutant YY1 were constructed by amplifying and subcloning the corresponding fragments of the YY1 coding region into the pcDNA3 vector. To generate EZH2 mutants, different regions of its coding sequence (1–251, 252–384, 385–618, 619–751, 385–465, 465–545, 545–618, 465–492, and 465–519) were amplified and subcloned into pGEX-4T-1 and pSL4-3×Flag plasmids to construct vectors expressing recombinant GST-EZH2 and 3×Flag-EZH2 mutants, respectively. To generate vectors expressing 3×Flag-YPB, -OPB, and -Cont (with a scrambled sequence of […]) peptides, their coding sequences were individually subcloned into a lentiviral vector pSL4 using the CMV promoter to drive the expression of 3×Flag-YPB-2A1-EGFP, 3×Flag-OPB-2A1-EGFP, and 3×Flag-Cont-2A1-EGFP. […]
Immunoprecipitations were performed as described previously. […] In Western blot studies, protein concentrations of samples were determined using the Bradford protein method, and 20 μg of proteins for each sample were separated by SDS-PAGE followed by transfer to polyvinylidene difluoride (PVDF) membranes. […]
Figure 1 Identification of YY1 binding site on EZH2 protein. […] The samples were analyzed by Western blot using EZH2 and YY1 antibodies as indicated. […]

B1: HA-YY1 (ΔOPB): YY1 mutant with the OPB domain deleted (protein)
chain: MASGDTLYIATDGSEMPAEIVELHEIEVETIPVETIETTVVGEEEEEDDDDEDGGGGDHGGGGGHGHAGHHHHHHHHHHHPPMIALQPLVTDDPTQVHHHQEVILVQTREEVVGGDDSDGLRAEDGFEDQILIPVPAPAGGDDDYIEQTLVTVAAAGKSGGGGSSSSGGGRVKKGGGKKSGKKSYLSGGAGAAGGGGADPDEKKDIDHETVVEEQIIGENSPPDYSEYMTGKKLPPGGIPGIDLSDPKQLAEFARMKPRKIKEDDAPRTIACPHKGCTKMFRDNSAMRKHLHTHGPRVHVCAECGKAFVESSKLKRHQLVHTGEKPFQCTFEGCGKRFSLDFNLRTHVRIHTGDRPYVCPFDGCNKKFAQSTNLKSHILTHAKAKNNQ
modifications: left off: HA, end not stated, kept
binding of HA-YY1 (ΔOPB) to wt EZH2 in co-IP: did not show detectable binding affinity
